System: trastuzumab (HCLPETG+LC)
Test: Proximity-based sortase-mediated protein ligation (PBS-PL) heavy chain labeling with GGG-TAMRA
Format: biochemical
Settings: 1 μg trastuzumab (HCLPETG+LC), 200 μM GGG-TAMRA, 37° C. overnight
Description: FIGS. 13A-13C show comparison of proximity-based sortase-mediated protein ligation with 1M SrtA versus traditional sortase labeling with the pentamutant SrtA. FIG. 13A: Heavy chain labeling of trastuzumab (HCLPETG+LC) was carried out by titrating 5M SrtA (5M SrtA/antibody molar ratios ranging from 1:1 to 100:1) and comparing the labeling efficiency to that of 5M SrtA-pG, 1M SrtA-pZ, 1M SrtA-pG, and 1M pG-SrtA. […] Labeling efficiencies of 5M SrtA (FIG. 13B) and 1M SrtA-pZ (FIG. 13C) on the heavy chain were further compared by scaling the GGG-TAMRA concentration from 1-200 μM. Reaction conditions included: 1 μg trastuzumab (HCLPETG+LC), 500 μM CaCl2, 200 μM GGG-TAMRA, and 0.63 μM SrtA variant (1:1 molar ratio of 1M SrtA-pZ to antibody) in 10 mM Tris-HCl buffer (37° C. overnight). For all titration experiments, all other reactions conditions were held constant. Labeling efficiencies were determined by measuring the fluorescent intensity of the heavy chain band. For each experiment, these values were normalized against the maximum fluorescent intensity to compare across reaction conditions. One-way ANOVA was used to determine statistical significance (*P<0.05, n.s.=not significant), followed by Tukey's multiple comparisons test. Bar graphs are represented as average f SD. N=3 per reaction condition.

trastuzumab (HCLPETG+LC), sequence (as listed by the source, other chains not shown): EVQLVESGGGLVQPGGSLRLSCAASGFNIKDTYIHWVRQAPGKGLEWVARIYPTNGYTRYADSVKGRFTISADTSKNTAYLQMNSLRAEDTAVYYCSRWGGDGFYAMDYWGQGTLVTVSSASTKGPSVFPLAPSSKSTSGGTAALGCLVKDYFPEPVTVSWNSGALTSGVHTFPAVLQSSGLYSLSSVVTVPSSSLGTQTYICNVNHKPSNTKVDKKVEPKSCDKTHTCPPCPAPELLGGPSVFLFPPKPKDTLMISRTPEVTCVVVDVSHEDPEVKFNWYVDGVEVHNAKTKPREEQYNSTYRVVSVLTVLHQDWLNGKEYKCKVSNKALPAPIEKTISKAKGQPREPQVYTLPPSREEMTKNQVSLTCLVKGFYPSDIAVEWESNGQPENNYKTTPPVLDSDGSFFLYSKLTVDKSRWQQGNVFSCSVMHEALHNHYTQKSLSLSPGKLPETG

B1: 5M SrtA-pG (protein)
chain: MQAKPQIPKDKSKVAGYIEIPDADIKEPVYPGPATREQLNRGVSFAEENESLDDQNISIAGHTFIDRPNYQFTNLKAAKKGSMVYFKVGNETRKYKMTSIRNVKPTAVEVLDEQKGKDKQLTLITCDDYNEETGVWETRKIFVATEVKGGSGGSMTFKLIINGKTLKGEITIEAVDAAEAEKIFKQYANDYGIDGEWTYDDATKTFTVTE
  heavy chain labeling efficiency of trastuzumab (HCLPETG+LC): did not label antibodies as efficiently as 1 M SrtA-pG and 1M SrtA-pZ
